Reference: publication PMC6881253, “The PCNA interaction motifs revisited: thinking outside the PIP-box” (Cellular and Molecular Life Sciences: CMLS, 2019)

Key:
Conditions in all cases: both partners purified
[1] = biological target: T1, N-terminally His6-tagged human PCNA (proliferating cell nuclear antigen) (human, UniProt P12004 1-261); experiment: ITC; ITC200; PCNA injected into the peptide; 10 mM HEPES, 150 mM NaCl, 1 mM EDTA, 1 mM TCEP, pH 7.4; 25 °C; single binding site model; triplicates
T1 construct: Proliferating cell nuclear antigen, human; The tag is used for capture in SPR; source: E. coli BL21(DE3), purified (Ni-NTA, SEC)

[2] = biological target: T1, N-terminally His6-tagged human PCNA …; experiment: SPR; Biacore T200, single-cycle; His6-PCNA captured by anti-His antibody coupled to a CM5 chip, peptides injected (five twofold dilutions); 10 mM HEPES, 150 mM NaCl, 0.05% P20, pH 7.4; 25 °C; kinetic fit for p21, steady-state fit for the other peptides
[3] = biological target: T1, N-terminally His6-tagged human PCNA …; experiment: as above; remark: listed apart in the source
[4] = biological target: T1, N-terminally His6-tagged human PCNA …; experiment: ITC; ITC200; PCNA injected into the peptide; 10 mM HEPES, 150 mM NaCl, 1 mM EDTA, 1 mM TCEP, pH 7.4; 25 °C; single binding site model; triplicates; remark: listed apart in the source

T1 sequence (P12004 whole entry): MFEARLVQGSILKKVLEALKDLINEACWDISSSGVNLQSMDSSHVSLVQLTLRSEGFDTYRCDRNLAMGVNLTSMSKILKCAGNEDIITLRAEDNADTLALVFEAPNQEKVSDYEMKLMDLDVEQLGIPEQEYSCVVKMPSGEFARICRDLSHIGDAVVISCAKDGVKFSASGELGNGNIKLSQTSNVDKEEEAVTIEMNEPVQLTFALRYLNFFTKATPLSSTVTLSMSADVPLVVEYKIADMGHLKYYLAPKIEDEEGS

B1: chimeric peptide comprising the Fen1 motif and the flanking regions of p21 (Ac-RKRRQGRLDDFFHSKRRL-NH2) (peptide)
peptide: Ac-RKRRQGRLDDFFHSKRRL-NH2
notes: PIP-box motif of flap endonuclease 1 (FEN1), human; also called p21 flanks grafted to Fen1; source: peptide, > 95% purity
Question: For B1, which Kd [1] is on record?
Answer: 0.73 µM

B2: MSH6 peptide (Ac-RQSTLYSFFPKSPAL-NH2) (peptide)
peptide: Ac-RQSTLYSFFPKSPAL-NH2
notes: DNA mismatch repair protein MSH6, human, canonical PIP-box at the very N-terminus; source: peptide, > 95% purity
Question: What does the source list for B2?
Answer: Kd [2]: 3 ± 0.05 µM; Kd [3]: 2.9 µM

B3: p21^143–157 peptide (Ac-RQTSMTDFYHSKRRL-NH2) (peptide)
peptide: Ac-RQTSMTDFYHSKRRL-NH2
notes: also called initial p21 peptide; p21 peptide; source: peptide, > 95% purity
Question: Which results are given for B3?
Answer: koff [2]: 0.14 ± 0.0003 s⁻¹; kon [2]: 1.7e+06 M⁻¹ s⁻¹; stoichiometry N [2]: 3 ligands per PCNA trimer; Kd [3]: 0.08 µM; Kd [4]: 0.067 µM; dH [4]: -55 kcal/mol

B4: p21^140–164 peptide (Ac-[residues removed]-NH2) (peptide)
peptide: RKRRQTSMTDFYHSKRRLIFSKRKP
modifications: N-terminally acetylated, C-terminally amidated
notes: called p21^140–163 in the results and the ITC methods; the name p21^140–163 is used elsewhere for the same peptide; also called p21^140–163; source: peptide, > 95% purity
Question: Which Kd [1] does the source give for B4 here?
Answer: 0.0064 µM

B5: FEN1 peptide (Ac-TQGRLDDFFKVTGSL-NH2) (peptide)
peptide: Ac-TQGRLDDFFKVTGSL-NH2
notes: Flap endonuclease 1 (FEN1), human, canonical PIP-box; source: peptide, > 95% purity
Question: B5 was tested. Which Kd [3] did it give?
Answer: 45 µM

B6: synthetic peptide harboring an APIM (Ac-MDRWLVKW-NH2) (peptide)
peptide: Ac-MDRWLVKW-NH2
notes: also called APIM peptide; source: synthetic peptide, > 95% purity
Question: How did the Kd [3] turn out when B6 was run?
Answer: 11 µM

B7: p21^140–157,Q144A (Ac-RKRRATSMTDFYHSKRRL-NH2) (peptide)
peptide: Ac-RKRRATSMTDFYHSKRRL-NH2
notes: also called p21 peptide variant with Q at the first position mutated to alanine; source: peptide, > 95% purity
Question: With B7 as the binder, how does the Kd [1] read?
Answer: 1.3 µM

B8: p21^140–157 peptide (peptide)
peptide: Ac-RKRRQTSMTDFYHSKRRL-NH2
notes: also called extended peptide; source: peptide, > 95% purity
Question: With B8 as the binder, how does the Kd [1] read?
Answer: 0.027 µM
